What follows are sequences tested on Escherichia coli TOP10 (assay: shrunken log2 fold change of peptide-encoding DNA abundance (4.5 h post-induction vs induction); higher = less antimicrobial activity (less host growth inhibition)). Conditions: time post-induction: 4.5 h; library: site-saturation at positions 5, 18, 19, 20.
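Also: peptides expressed intracellularly from a pBAD plasmid library in pooled LB shake-flask culture, induced with 0.3% L-arabinose, DNA abundance read by NGS, three biological replicates, DESeq2 with apeglm shrinkage.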

| Sequence | shrunken log2 fold change |
| --- | --- |
| RRIRPRPPRLPRPRPRPFISPRP | -0.706 |
| RRIRPRPPRLPRPRPRPFKPPRP | -0.387 |
| RRIRPRPPRLPRPRPRPFLAPRP | 0.0316 |
| RRIRPRPPRLPRPRPRPFLEPRP | -0.214 |
| RRIRPRPPRLPRPRPRPFLMPRP | -0.349 |
| RRIRPRPPRLPRPRPRPFLSPRP | -0.312 |
| RRIRPRPPRLPRPRPRPFNAPRP | -0.287 |
| RRIRPRPPRLPRPRPRPFQCPRP | -0.0376 |
| RRIRPRPPRLPRPRPRPFQEPRP | -0.185 |
| RRIRPRPPRLPRPRPRPFQHPRP | -0.00804 |
| RRIRPRPPRLPRPRPRPFQMPRP | -0.0867 |
| RRIRPRPPRLPRPRPRPFRRPRP | 0.0448 |
| RRIRPRPPRLPRPRPRPFSSPRP | -0.322 |
| RRIRPRPPRLPRPRPRPFTSPRP | -0.512 |
| RRIRPRPPRLPRPRPRPFWMPRP | -0.00291 |
| RRIRPRPPRLPRPRPRPFWPPRP | 0.199 |
| RRIRPRPPRLPRPRPRPGALPRP | 0.243 |
| RRIRPRPPRLPRPRPRPGAQPRP | 0.198 |
| RRIRPRPPRLPRPRPRPGASPRP | 0.344 |
| RRIRPRPPRLPRPRPRPGAWPRP | 0.132 |
| RRIRPRPPRLPRPRPRPGCAPRP | 1.55 |
| RRIRPRPPRLPRPRPRPGDVPRP | 0.145 |
| RRIRPRPPRLPRPRPRPGFFPRP | 0.216 |
| RRIRPRPPRLPRPRPRPGFHPRP | -0.0164 |
| RRIRPRPPRLPRPRPRPGFLPRP | 0.167 |

| Sequence | shrunken log2 fold change |
| --- | --- |
| RRIRPRPPRLPRPRPRPGGVPRP | 0.567 |
| RRIRPRPPRLPRPRPRPGHAPRP | 0.461 |
| RRIRPRPPRLPRPRPRPGHEPRP | -0.202 |
| RRIRPRPPRLPRPRPRPGHQPRP | 0.153 |
| RRIRPRPPRLPRPRPRPGHSPRP | -0.0921 |
| RRIRPRPPRLPRPRPRPGIEPRP | -0.00839 |
| RRIRPRPPRLPRPRPRPGIHPRP | -0.137 |
| RRIRPRPPRLPRPRPRPGIKPRP | -0.0194 |
| RRIRPRPPRLPRPRPRPGINPRP | -0.178 |
| RRIRPRPPRLPRPRPRPGIWPRP | 0.157 |
| RRIRPRPPRLPRPRPRPGKEPRP | 0.0995 |
| RRIRPRPPRLPRPRPRPGKHPRP | -0.141 |
| RRIRPRPPRLPRPRPRPGKPPRP | 0.306 |
| RRIRPRPPRLPRPRPRPGLYPRP | -0.132 |
| RRIRPRPPRLPRPRPRPGMFPRP | -0.0259 |
| RRIRPRPPRLPRPRPRPGMKPRP | -0.257 |
| RRIRPRPPRLPRPRPRPGREPRP | 2.45 |
| RRIRPRPPRLPRPRPRPGRPPRP | 0.155 |
| RRIRPRPPRLPRPRPRPGRSPRP | 0.0919 |
| RRIRPRPPRLPRPRPRPGSCPRP | 0.111 |
| RRIRPRPPRLPRPRPRPGSYPRP | 0.0254 |
| RRIRPRPPRLPRPRPRPGVCPRP | 0.428 |
| RRIRPRPPRLPRPRPRPGWEPRP | 0.462 |
| RRIRPRPPRLPRPRPRPGWRPRP | 0.438 |
| RRIRPRPPRLPRPRPRPGWYPRP | 0.075 |

| Sequence | shrunken log2 fold change |
| --- | --- |
| RRIRPRPPRLPRPRPRPHAKPRP | 1.39 |
| RRIRPRPPRLPRPRPRPHDSPRP | -0.134 |
| RRIRPRPPRLPRPRPRPHDWPRP | -0.0184 |
| RRIRPRPPRLPRPRPRPHEEPRP | -0.000777 |
| RRIRPRPPRLPRPRPRPHEPPRP | 0.239 |
| RRIRPRPPRLPRPRPRPHGIPRP | 0.0828 |
| RRIRPRPPRLPRPRPRPHHCPRP | -0.257 |
| RRIRPRPPRLPRPRPRPHHEPRP | -0.066 |
| RRIRPRPPRLPRPRPRPHHIPRP | -0.544 |
| RRIRPRPPRLPRPRPRPHHTPRP | -0.617 |
| RRIRPRPPRLPRPRPRPHIYPRP | -0.576 |
| RRIRPRPPRLPRPRPRPHLAPRP | 0.0568 |
| RRIRPRPPRLPRPRPRPHMCPRP | -0.082 |
| RRIRPRPPRLPRPRPRPHMKPRP | 1.08 |
| RRIRPRPPRLPRPRPRPHMLPRP | -0.226 |
| RRIRPRPPRLPRPRPRPHNQPRP | -0.378 |
| RRIRPRPPRLPRPRPRPHNVPRP | -0.104 |
| RRIRPRPPRLPRPRPRPHPDPRP | -0.0791 |
| RRIRPRPPRLPRPRPRPHPWPRP | 0.0817 |
| RRIRPRPPRLPRPRPRPHQPPRP | -0.129 |
| RRIRPRPPRLPRPRPRPHRCPRP | -0.299 |
| RRIRPRPPRLPRPRPRPHTLPRP | -0.195 |
| RRIRPRPPRLPRPRPRPHTRPRP | 0.171 |
| RRIRPRPPRLPRPRPRPHTWPRP | -0.0512 |
| RRIRPRPPRLPRPRPRPHVSPRP | 0.00841 |

| Sequence | shrunken log2 fold change |
| --- | --- |
| RRIRPRPPRLPRPRPRPHVTPRP | -0.0437 |
| RRIRPRPPRLPRPRPRPIALPRP | -0.0697 |
| RRIRPRPPRLPRPRPRPIARPRP | -0.0116 |
| RRIRPRPPRLPRPRPRPICVPRP | -0.215 |
| RRIRPRPPRLPRPRPRPIDRPRP | -0.00145 |
| RRIRPRPPRLPRPRPRPIDWPRP | 0.272 |
| RRIRPRPPRLPRPRPRPIEDPRP | -0.0617 |
| RRIRPRPPRLPRPRPRPIEEPRP | -0.0376 |
| RRIRPRPPRLPRPRPRPIFPPRP | 0.0704 |
| RRIRPRPPRLPRPRPRPIGGPRP | 0.00483 |
| RRIRPRPPRLPRPRPRPIGVPRP | 0.108 |
| RRIRPRPPRLPRPRPRPIHFPRP | -0.241 |
| RRIRPRPPRLPRPRPRPIIFPRP | -0.0799 |
| RRIRPRPPRLPRPRPRPIIHPRP | -0.707 |
| RRIRPRPPRLPRPRPRPIISPRP | -0.189 |
| RRIRPRPPRLPRPRPRPINEPRP | -0.54 |
| RRIRPRPPRLPRPRPRPIRLPRP | 0.0338 |
| RRIRPRPPRLPRPRPRPISIPRP | -0.109 |
| RRIRPRPPRLPRPRPRPITEPRP | -0.0543 |
| RRIRPRPPRLPRPRPRPITQPRP | -0.194 |
| RRIRPRPPRLPRPRPRPIVFPRP | -0.293 |
| RRIRPRPPRLPRPRPRPIVTPRP | -0.164 |
| RRIRPRPPRLPRPRPRPIWEPRP | 0.0926 |
| RRIRPRPPRLPRPRPRPIYIPRP | -0.36 |
| RRIRPRPPRLPRPRPRPKAAPRP | 0.386 |

| Sequence | shrunken log2 fold change |
| --- | --- |
| RRIRPRPPRLPRPRPRPKAFPRP | -0.198 |
| RRIRPRPPRLPRPRPRPKAHPRP | 0.0759 |
| RRIRPRPPRLPRPRPRPKALPRP | 0.461 |
| RRIRPRPPRLPRPRPRPKAWPRP | -0.0274 |
| RRIRPRPPRLPRPRPRPKCLPRP | -0.0739 |
| RRIRPRPPRLPRPRPRPKCQPRP | 0.0931 |
| RRIRPRPPRLPRPRPRPKDIPRP | -0.801 |
| RRIRPRPPRLPRPRPRPKDPPRP | 0.165 |
| RRIRPRPPRLPRPRPRPKDYPRP | -0.0674 |
| RRIRPRPPRLPRPRPRPKFRPRP | -0.122 |
| RRIRPRPPRLPRPRPRPKGLPRP | 0.062 |
| RRIRPRPPRLPRPRPRPKHVPRP | -0.137 |
| RRIRPRPPRLPRPRPRPKKTPRP | -0.107 |
| RRIRPRPPRLPRPRPRPKLMPRP | 0.121 |
| RRIRPRPPRLPRPRPRPKLPPRP | 0.298 |
| RRIRPRPPRLPRPRPRPKLWPRP | 0.683 |
| RRIRPRPPRLPRPRPRPKMGPRP | -0.0348 |
| RRIRPRPPRLPRPRPRPKPNPRP | 0.356 |
| RRIRPRPPRLPRPRPRPKPVPRP | 0.154 |
| RRIRPRPPRLPRPRPRPKQRPRP | 0.186 |
| RRIRPRPPRLPRPRPRPKQWPRP | -0.22 |
| RRIRPRPPRLPRPRPRPKRCPRP | -0.0846 |
| RRIRPRPPRLPRPRPRPKRGPRP | 0.484 |
| RRIRPRPPRLPRPRPRPKRIPRP | -0.155 |
| RRIRPRPPRLPRPRPRPKRQPRP | 0.0603 |

| Sequence | shrunken log2 fold change |
| --- | --- |
| RRIRPRPPRLPRPRPRPKRVPRP | 0.0499 |
| RRIRPRPPRLPRPRPRPKRYPRP | 0.281 |
| RRIRPRPPRLPRPRPRPKSGPRP | 0.356 |
| RRIRPRPPRLPRPRPRPKTRPRP | 0.382 |
| RRIRPRPPRLPRPRPRPKYFPRP | -0.693 |
| RRIRPRPPRLPRPRPRPLAAPRP | 0.767 |
| RRIRPRPPRLPRPRPRPLAKPRP | 0.261 |
| RRIRPRPPRLPRPRPRPLAQPRP | 0.192 |
| RRIRPRPPRLPRPRPRPLARPRP | 0.388 |
| RRIRPRPPRLPRPRPRPLCNPRP | -0.05 |
| RRIRPRPPRLPRPRPRPLCSPRP | -0.431 |
| RRIRPRPPRLPRPRPRPLDCPRP | 0.0595 |
| RRIRPRPPRLPRPRPRPLDTPRP | 1 |
| RRIRPRPPRLPRPRPRPLEWPRP | -0.00787 |
| RRIRPRPPRLPRPRPRPLEYPRP | -0.56 |
| RRIRPRPPRLPRPRPRPLGNPRP | -0.173 |
| RRIRPRPPRLPRPRPRPLINPRP | -0.298 |
| RRIRPRPPRLPRPRPRPLIPPRP | -0.19 |
| RRIRPRPPRLPRPRPRPLKWPRP | 0.398 |
| RRIRPRPPRLPRPRPRPLMMPRP | -0.204 |
| RRIRPRPPRLPRPRPRPLMVPRP | -0.0973 |
| RRIRPRPPRLPRPRPRPLNMPRP | -0.432 |
| RRIRPRPPRLPRPRPRPLNWPRP | 0.0566 |
| RRIRPRPPRLPRPRPRPLPHPRP | -0.206 |
| RRIRPRPPRLPRPRPRPLPNPRP | 0.0283 |
